From publication doi:10.1101/2023.12.09.570908 (bioRxiv, 2023)

Key:
WDR5^22-334 [1] = target: T1, WDR5^22-334 (human, UniProt P61964 22-334); experiment: ITC
WDR5^22-334 [2] = target: T1, WDR5^22-334; experiment: ITC; remark: listed apart in the source

With SSRRSSHYPAAVQSQAAAERGASATAKSRAISI [PTENα-NTE^116-148 peptide] the “Kd against the 1:1 mixture of WDR5^22-334 and H3^1-15” value (WDR5^22-334 [1]) was 32 ± 3 µM and the Kd (WDR5^22-334 [2]) was 3.8 µM.
